This is an account of results in US20210079074A1 (Alector, published 2021).

Read-outs that look alike come from different tables or passages of the source.

In assay [1] the target is T1, recombinant MS4A4A soluble polypeptide JS5.
T1 construct: also called JS5.His
Nature of the assay: ELISA, biotin-antigen on streptavidin plate. The protocol:
(§1) Anti-MS4A4A antibodies of the present disclosure were tested for their ability to bind to the different recombinant MS4A4A soluble polypeptides, as described in Example 2, as follows. Nucleic acid encoding the VH and VL domains of humanized anti-MS4A4A antibodies of the present disclosure were cloned into pcDNA3.4 vector which contains either the human IgG1 heavy chain constant domain or human kappa constant domain. The humanized anti-MS4A4A antibodies were expressed in Expi293 cells and were purified by Mab select antibody purification resin (GE Healthcare Life Science, cat#17519902) following the manufacture's protocol. ELISA was performed to measure binding of anti-MS4A4A antibodies of the present disclosure the recombinant MS4A4A soluble polypeptides. 1 μg/ml biotinylated antigens were preincubated on the streptavidin-coated ELISA plates (Thermo Scientific, cat#PI15120) for 1 hour. Plates were washed 3 times, followed by the addition of antibodies (1 μg/ml, 0.33 μg/ml, and 0.11 μg/ml antibodies. Plates were incubated at room temperature with shaking for 1 hr, washed 3 times, then 1/2500 dilution of HRP conjugates goat anti human kappa antibodies added (SigmaAldrich cat#. A7164-1ML).
In general terms: An ELISA detects its analyte on a solid surface through an enzyme-linked reagent.

Assay [2] addresses T2, negative control polypeptide JS10.
T2 construct: negative control for JS5 and JS6; also called JS10.His
The assay can be described thus: ELISA, biotin-antigen on streptavidin plate. On the procedure: as §1

In assay [3] the target is T3, recombinant MS4A4A soluble polypeptide JS6.
T3 construct: also called JS6.His
Nature of the assay: ELISA, biotin-antigen on streptavidin plate. On the procedure: as §1

Assay [4] has as its target T4, recombinant MS4A4A soluble polypeptide JS1.
T4 construct: also called JS1.His; loop grafted antigen
The assay can be described thus: ELISA, biotin-antigen on streptavidin plate. On the procedure: as §1

Assay [5] has as its target T5, negative control polypeptide JS4.
T5 construct: negative control for JS1; also called JS4.His
Nature of the assay: ELISA, biotin-antigen on streptavidin plate. The protocol: as §1

Assay [6] has as its target T6, huMS4A4A-ECL2 free-peptide (human).
T6 construct: synthetic, free or BSA-conjugated, coated on the plate; also called human MS4A4A ECL2 peptide; huMS4A4A-ELC2 free-peptide
T6 peptide: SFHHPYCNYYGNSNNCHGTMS
The assay can be described thus: peptide ELISA, murine antibody. On the procedure: Coated plates were then blocked with ELISA diluent (PBS+0.5% BSA+0.05% Tween20) for 1-hour, washed 3×300 μL in PBST (PBS+0.05% Tween20, Thermo Cat#28352), and then the antibodies were added to the plate ([…]). After 30 mins incubation (room temperature, with shaking), the plates were washed 3×300 μL in PBST. […] After a final set of washes (3×300 μL in PBST), 50 μL of TMB substrate (BioFx Cat#TMBW-1000-01) was added and the reaction was then quenched after 5-10 mins with 50 μL of stop solution (BioFx Cat#BSTP-1000-01). The quenched reaction wells were detected for absorbance at […] with a BioTek Synergy Microplate Reader using GENS 2.04 software.

In assay [7] the target is T7, human MS4A4A (human, UniProt Q96JQ5 1-239). Nature of the assay: FACS, U937-huMS4A4A, 5 ug/ml. Put shortly:
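U937 cells expressing human MS4A4A were viability-stained, then 2×10^4 cells/well were incubated with mouse hybridoma IgG or recombinant human IgG1 Fc chimera in PBS/2% FBS/1 mM EDTA. A secondary antibody was then applied on ice for 15 min. Binding was read by flow cytometry as median fluorescence intensity.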
In general terms: In flow cytometry, cells or beads pass a laser one at a time.

Assay [8] has as its target T1, recombinant MS4A4A soluble polypeptide …. The assay can be described thus: ELISA, 0.11 ug/ml antibody. The protocol:
as §1

The target is the same in assay [9]. The assay can be described thus: ELISA, 0.33 ug/ml antibody. On the procedure: as §1
For assay [10], the target named is T7, human MS4A4A. Nature of the assay: FACS, U937-huMS4A4A, 5 ug/ml. On the procedure:
Anti-MS4A4A antibodies tested were either mouse IgGs purified from hybridoma supernatant or human IgG1 Fc chimeras produced recombinantly in Expi293 cells. Affinity binding to cells was determined as follows. Briefly, cells were harvested, washed, and labeled with Aqua Live/Dead for viability discrimination. After a wash with PBS, 2×10\hat{ }4 cells were aliquoted per well in 96-well U-bottom plates and incubated with 50 μL of purified anti-MS4A4A antibody at various concentrations (3× dilutions starting at 10 μg/mL) in FACS buffer (PBS+2% FBS+1 mM EDTA). After this primary incubation, the supernatant was removed via centrifugation, washed 2× with 150 μL of ice-cold FACS buffer, and incubated with the appropriate secondary antibody on ice for 15 minutes. Following the secondary antibody incubation, the cells were again washed 2× with ice-cold FACS buffer and resuspended in a final volume of 200 μL of FACS buffer. Flow cytometry analysis was performed on a FACSCanto system (BD Biosciences). Binding data was expressed as Median Fluorescent Intensity (MFI).
These experiments were performed using anti-MS4A4A antibodies at a concentration of 5 μg/ml and were assayed for cell binding by flow cytometry.
This is another data set of the same source.

The target of assay [11] is T1, recombinant MS4A4A soluble polypeptide …. Nature of the assay: ELISA, 1 ug/ml antibody. The gist of the method: (§2)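 Biotinylated antigen 1 μg/ml captured on streptavidin, 1 h; wash x3. Humanized IgG1/kappa Ab (Expi293) 1, 0.33, 0.11 μg/ml, 1 hr RT shaking; wash x3. HRP anti-human kappa 1/2500.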
The target in assay [12] is T4, recombinant MS4A4A soluble polypeptide …. Nature of the assay: ELISA, 1 ug/ml antibody. The gist of the method: as §2
The target in assay [13] is FcγRIIIa receptor (V158 variant) (UniProt P08637 17-254). The assay can be described thus: cell-based or functional assay.
For assay [14], the target named is T8, FcγRIIa receptor (H131 variant) (UniProt P12318 34-317, limits assumed).
T8 sequence (looked up): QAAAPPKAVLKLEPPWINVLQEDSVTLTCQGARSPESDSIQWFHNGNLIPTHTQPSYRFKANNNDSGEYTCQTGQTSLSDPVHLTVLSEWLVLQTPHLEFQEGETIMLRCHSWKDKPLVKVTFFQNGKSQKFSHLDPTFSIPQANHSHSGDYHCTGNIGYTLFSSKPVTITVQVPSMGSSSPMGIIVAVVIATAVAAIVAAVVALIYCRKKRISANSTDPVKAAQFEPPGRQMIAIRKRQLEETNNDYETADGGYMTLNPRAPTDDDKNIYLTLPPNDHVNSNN
Nature of the assay: cell-based or functional assay.

Assay [15] addresses T7, human MS4A4A. The assay can be described thus: cell-based or functional assay.
The target in assay [16] is T7, human MS4A4A. The assay can be described thus: cell-based or functional assay. This is another data set of the same source.

Sequence of FcγRIIIa receptor (V158 variant) (P08637 other isoform, or with tags, fused parts or gaps mutant limits assumed): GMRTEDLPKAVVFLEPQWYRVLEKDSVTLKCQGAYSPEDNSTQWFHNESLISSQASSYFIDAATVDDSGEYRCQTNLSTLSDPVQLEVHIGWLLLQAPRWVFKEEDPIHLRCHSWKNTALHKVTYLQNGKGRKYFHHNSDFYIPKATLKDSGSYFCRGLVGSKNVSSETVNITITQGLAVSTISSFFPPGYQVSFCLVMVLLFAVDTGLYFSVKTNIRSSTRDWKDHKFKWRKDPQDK

B1: anti-MS4A4A antibody 4A-25 (antibody, V domains shown)
VH: QVTLKESGPGILQPSQTLSLTCSFSGFSLRTSDMGVGWVRQPSGEGLEWLADIWWDDNKYYNPSLKSRLTISKDTSSNQVFLKITSVDTADTATYYCARRANYGNLFDYWGQGTAVTVSS
VL: DIVMTQSLKFMSTSVGDRVSITCKASQNVRSAVAWYQQKPGQSPKVLIYWASNRHTGVPDRFTGSGSGTDFTLTISNVQSEDLADYFCLQHWNYLTFGSGTKLEIK
notes: murine parental; mFc = murine Fc; also called 4A-25.mFc
Take B1: the “ELISA OD” value in [1] amounted to 1.12; in assay [2], 0.063; in assay [3], 1.26; in assay [4] it was 1.38; in assay [5], 0.091. The binding result in assay [6] is recorded as “binds”. The MFI with human MS4A4A [7] came out at 648.

B2: anti-MS4A4A antibody 4A-202 (antibody, V domains shown)
VH: QVQLQQSGAELARPGASVKLSCKASGYTFTNYWMQWVKQRPGQGLEWIGATHPGHGDTRYTQKFKGKATLSADKSSSTAYMQLSNLASEDSAVYYCAREEVYYGFRSYWYFDVWGRGTLVTVSS
VL: not shown
notes: murine parental; tested as mouse IgG or as human IgG1 Fc chimera (hFc), told under assay
Turning to B2, the “ELISA OD” value in assay [1] was 1.22; in [2], 0.084; in [3] it was 1.23; in assay [4] it was 1.16; in [5], 0.111; in assay [8], 0.079. The “ELISA OD” value was 0.111 in assay [9] and 0.188 in assay [11]. Also, the binding result in [6] was “binds”. Also, the MFI with human MS4A4A [10] was 31700; with human MS4A4A [7] it was 216. The OD450 in assay [12] was found to be 0.141.

B3: anti-MS4A4A antibody 4A-313 NSLF huIgG1 (antibody)
heavy: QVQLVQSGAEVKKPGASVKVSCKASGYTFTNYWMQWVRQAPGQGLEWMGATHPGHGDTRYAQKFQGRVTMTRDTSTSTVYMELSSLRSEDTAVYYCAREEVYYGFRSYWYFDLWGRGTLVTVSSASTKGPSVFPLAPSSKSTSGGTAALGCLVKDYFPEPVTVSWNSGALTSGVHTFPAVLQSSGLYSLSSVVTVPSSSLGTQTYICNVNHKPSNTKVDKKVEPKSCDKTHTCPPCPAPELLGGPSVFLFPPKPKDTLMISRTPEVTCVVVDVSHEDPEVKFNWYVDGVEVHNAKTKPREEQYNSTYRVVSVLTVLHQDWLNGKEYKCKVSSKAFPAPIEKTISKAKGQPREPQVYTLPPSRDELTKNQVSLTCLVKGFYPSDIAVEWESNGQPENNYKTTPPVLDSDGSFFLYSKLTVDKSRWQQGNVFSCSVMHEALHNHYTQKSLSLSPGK
light: EIVLTQSPATLSLSPGERATLSCRASESVDNYGVSRMNWYQQKPGQAPRLLIYGASNQGSGIPARFSGSGSGTDFTLTISSLEPEDFAVYYCQQSKEVPPTFGGGTKVEIKRTVAAPSVFIFPPSDEQLKSGTASVVCLLNNFYPREAKVQWKVDNALQSGNSQESVTEQDSKDSTYSLSSTLTLSKADYEKHKVYACEVTHQGLSSPVTKSFNRGEC
Turning to B3, in assay [13], the “luminescence, ADCC reporter, 3.048316 ng/mL” value came out at 324; the “luminescence, ADCC reporter, 9.144947 ng/mL” value turned out to be 356; the “luminescence, ADCC reporter, 27.43484 ng/mL” value is 347; the “luminescence, ADCC reporter, 82.30453 ng/mL” value came out at 360. Also, in assay [13], the “luminescence, ADCC reporter, 246.9136 ng/mL” value worked out at 332; the “luminescence, ADCC reporter, 740.7407 ng/mL” value stood at 363; the “luminescence, ADCC reporter, 2,222.222 ng/mL” value stood at 431; the “luminescence, ADCC reporter, 6,666.667 ng/mL” value was 415. The “luminescence, ADCC reporter, 20,000 ng/mL” value in [13] was 442. In [14], the “luminescence, ADCP reporter, 3.048316 ng/mL” value came to 42; the “luminescence, ADCP reporter, 9.144947 ng/mL” value is 45; the “luminescence, ADCP reporter, 27.43484 ng/mL” value was determined as 39; the “luminescence, ADCP reporter, 82.30453 ng/mL” value was found to be 58. Besides, in assay [14], the “luminescence, ADCP reporter, 246.9136 ng/mL” value came out at 51; the “luminescence, ADCP reporter, 740.7407 ng/mL” value was 61; the “luminescence, ADCP reporter, 2,222.222 ng/mL” value was determined as 55; the “luminescence, ADCP reporter, 6,666.667 ng/mL” value amounted to 227. Moreover, the “luminescence, ADCP reporter, 20,000 ng/mL” value in assay [14] is 250. Moreover, the “EC50 of the increase of sTREM2, primary human macrophages” value with human MS4A4A [15] stood at 0.025 µg/mL. Further, in the assay with human MS4A4A [16], the “EC50 of the increase of mTREM2, primary human macrophages” value came to 0.028 µg/mL.

B4: anti-MS4A4A antibody 4A-450 NSLF huIgG1 (antibody, V domains shown)
VH: QVQLVQSGSELKKPGASVKVSCKASGYAFTSYGLSWVRQAPGQGLEWMGWINTYSGVPTYAQGFTGRFVFSLDTSVSTAYLQISSLKAEDTAVYYCARTMADYWGQGTLVTVSS
VL: DVVMTQSPLSLPVTLGQPASISCKSSRSLLYSAGKTYLSWFQQRPGQSPRRLIYLVSKLDSGVPDRFSGSGSGTDFTLKISRVEAEDVGVYYCWQGIDFHQTFGGGTKVEIKR
In the case of B4, the “EC50 of the increase of sTREM2, primary human macrophages” value in the assay with human MS4A4A [15] was determined as 0.069 µg/mL. Further, the “EC50 of the increase of mTREM2, primary human macrophages” value with human MS4A4A [16] was 0.039 µg/mL.

B5: anti-MS4A4A antibody 4A-214 (antibody, V domains shown)
VH: EVKLEESGGGLVQPGRSMKLSCVASGFTFSNYWMNWVRQSPEKGLEWVAEIRLKSNNYATHYAESVKGRFTISRDDSKSSVYLQMNNLRAEDTGIYYCSSMIIVDYWGQGTTVTVSS
VL: DIVLTQSPASLTVSLGQRATISCRASQSVSSSTYSYLHWYQQRPGQPPKLLIKYASNLESGVPARFSGSGSGTVFTLNIHPVEEEDTATYYCQHSWEIPLTFGAGTKLEMK
notes: murine; mFc = murine Fc; also called 4A-214.mFc
Consider B5, for which the “ELISA OD” value worked out at 1.62 in assay [1]; 0.086 in assay [2]; 1.71 in assay [3]; 1.74 in assay [4]; 0.11 in assay [5]. For the same molecule, the binding result in assay [6] is given as “binds”.
